Results taken from publication PMC4612432 (The journal of physical chemistry. B, 2013).

T1: Wild-type human lysozyme (human) (UniProt P61626)
T1 sequence: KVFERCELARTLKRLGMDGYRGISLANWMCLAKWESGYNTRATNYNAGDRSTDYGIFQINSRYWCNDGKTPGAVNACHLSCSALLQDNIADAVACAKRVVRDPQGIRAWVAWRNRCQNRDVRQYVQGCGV


Assays:
[1] = molecular target: T1, Wild-type human lysozyme (human); assay: SPR
[2] = molecular target: T1, Wild-type human lysozyme (human); assay: ITC
Wild-type human lysozyme = Wild-type human lysozyme (Homo sapiens, UniProt P61626); assay: SPR

Binder | Kd [1] | koff [1] | kon [1] | Kd [2] | Kd (Wild-type human lysozyme) | koff (Wild-type human lysozyme) | kon (Wild-type human lysozyme)
cAb-HuL5G (VHH) VHH: QVQLQESGGGSVQAGGSLRLSCSASGLSTTVMAWFRQAPGKEREGVAAIYTGDGFPYYADSVKGRFTISQDNAKNTVYLQMNSLKPEDTAMYYCAAKTGAFSYGSLWWMSRAYNHWGQGTEVTVSS | 0.31 µM | 0.128 s⁻¹ | 410000 M⁻¹ s⁻¹ | 2.5 µM | – | – | –
cAb-HuL5 (VHH) VHH: QVQLQESGGGSVQAGGSLRLSCEASGLSTTVMAWFRQAPGKEREGVAAIYTGDGFPYYADSVKGRFTISQDNAKNRMYLQMNSLEPEDTAMYYCAAKTGAFSYGSLWWMSRAYNHWGQGTQVTVSS | – | – | – | – | 0.46 µM | 0.088 ± 0.009 s⁻¹ | 190000 M⁻¹ s⁻¹
